Reference: US20020009436A1, “Methods and compositions for inhibiting adhesion by microorganisms” (priority 1999, published 2002)

How the values were obtained:
S. pneumoniae = assay: Adhesion of pneumococci to buccal cells; assay type: cell-based; settings: strain 6303
Experimental: Methods for handling polyphenol oxidase and asparaginase and for observing adhesion by microorganisms were generally as described in the previous Examples with variations to adapt these methods to these bacteria and to buccal cells. In particular, adhesion was measured in a manner similar to that just described for S. pyogenes.

S. pyogenes [1] = assay: Adhesion of S. pyogenes to human buccal cells (light microscopy counts); assay type: cell-based, Streptococcus pyogenes
Experimental: Streptococcus pyogenes strains were grown and pure cultures isolated on blood agar plates at 37° C. Each were subsequently inoculated into brain heart infusion (BHI) nutrient broth at 37° C. for continued growth.
The cells of each S. pyogenes strains were then washed with phosphate buffer (pH 7) three times. The optical density (OD) of each stain was measured using a spectrophotometer, and adjusted to 0.8. One ml of each strain was treated with polyphenol oxidase or asparaginase. The controls and enzyme-supplemental cells were incubated for ninety minutes at 37° C. Each were washed three times for ten minutes at 15,000 rpm, and recollected in 0.9 ml phosphate buffer.
Human buccal cells were collected and cleaned in phosphate buffer. The buccal cells and S. pyogenes were combined in a ratio of 3:1 respectively, for each strain and allowed to incubate 30 min. Buccal cells were removed by centrifugation (500×g) and washed three times to reduce streptococcal background. The buccal cell-streptococcal complexes were then smeared on slides. The resulting slides were stained using the Gram method, and viewed under the 100× oil immersion lens. The number of S. pyogenes for each strain was counted for at least 50 buccal cells.

Bacillus cereus = assay: Growth inhibition of Bacillus cereus; assay type: cell-based
[2] = system: E. coli / urinary epithelial cells (UECs); assay: Binding of E. coli to urinary epithelial cells, microscopy (Experiment 1); assay type: cell-based; settings: FIG. 4; greater with increasing concentration or duration of incubation
Experimental: Urinary epithelial cells (UEC) were obtained by a method known to those of skill in the art. Briefly, the cells were obtained by centrifugation (5000×g) of 200 ml of clean-catch-collected first morning male urine. Cells were washed 3× in PBS and suspended to a density of 1×10^9 cells/ml in an end-over-end apparatus. After 30 minutes mixtures were collected on polycarbonate filters (pore size=10 μm) and washed with three volumes of cold PBS. Filters were pressed onto glass microscope slides which are then heat-fixed and stained with crystal violet for 2 min. Slides were examined at 1000× with phase-contrast microscopy. For each experimental condition 200 UEC's are examined. Adherent bacteria were quantitated as described in previous Examples.

Influenza A strain H1N1 = assay: Hemagglutination of chicken erythrocytes by influenza virus; assay type: cell-based; settings: polyphenol oxidase 70 U/ml or asparaginase 10 U/ml; untreated 256
Klebsiella pneumoniae = assay: Growth inhibition of Klebsiella pneumoniae; assay type: cell-based
Candida albicans = assay: Adhesion of Candida albicans to buccal cells; assay type: cell-based; settings: 37° C. 60 min, ave ±SE, 5 runs
[3] = system: proteolytic activity of the P. gingivalis; assay: Hydrolysis of collagen substrate (azocoll) by P. gingivalis; assay type: cell-based
Excerpt: The asparaginase and polyphenol oxidase thus not only affect the adhesion and/or hemagglutination, but also the proteolytic activity of the P. gingivalis.

S. pyogenes [4] = assay: Adhesion of S. pyogenes to buccal epithelial cells (coaggregation slides); assay type: cell-based, Streptococcus pyogenes
Experimental: This experiment began with growing and harvesting of five strains of S. pyogenes, including M14 Lowe, YL3, M24 and T2/MR. The strains were grown in BHI broth in a 37 degree incubator overnight. The cultures were grown under static conditions. The cells were then harvested by washing twice with phosphate buffer (pH=7). Treatment of the cells with polyphenol oxidase and asparaginase began with finding the optical density of the stock solution of harvested cells. This was done using a spectrophotometer. Each strain was treated with two concentrations of polyphenol oxidase (100 μg/OD and 300 μg/OD) and one concentration of asparaginase (300 μg/OD). The treatment of the cells with polyphenol oxidase took place in the 37 degree incubator for 1.5 hours. The cells were then washed twice with phosphate buffer (pH 7). At this time, a coaggregation was made and allowed to set at static conditions for two hours. Slides were then made of each coaggregation.
The treatment of the cells with asparaginase also took place in the 37 degree incubator for three hours. Before treatment, the cells were washed twice with phosphate buffer of pH=8. After treatment, they were washed twice with phosphate buffer of pH=7. Coaggregations and slides were then made as for polyphenol oxidase.
The buccal cells were harvested from the inner cheeks using cotton swabs. […]

[5] = system: type 1-fimbriated and P-fimbriated E. coli; assay: Growth inhibition of E. coli; assay type: cell-based
Experimental: Similar and/or art recognized methods were used to monitor the effects of asparaginase on growth of other microbes including two strains of E. coli, S. pyogenes, Klebsiella pneumoniae, Bacillus cereus, and Proteus vulgaris. Both type 1-fimbriated and P-fimbriated E. coli were incubated with polyphenol oxidase, asparaginase, and ampicillin to test the ability of these agents to inhibit the growth of the bacteria.

[6] = system: A. naeslundii ATCC 12104 (adhesin) / Capnocytophaga ochracea (receptor); assay: Coaggregation A. naeslundii ATCC 12104 / Capnocytophaga ochracea; settings: A. naeslundii ATCC 12104 (adhesin) enzyme treated; polyphenol oxidase 90 U/ml, asparaginase 20 U/ml
Experimental: S. sanguis 10556, A. naeslundii strains 12104 and T14V and E. coli were grown static cultures in Todd-Hewitt broth (BBL Microbiology Systems, Cockeysville, Md.). P. gingivalis W50, A. actinomycetemcomitans and C. ochracea were grown in brain heart infusion broth (BBL). F. nucleatum 22586 and P. intermedia 25611 were grown in modified Schaedler broth (BBL). All oral species except S. sanguis 10556 were incubated at 37° C. as static cultures under an anaerobic atmosphere containing H2, CO2 and N2(10:10:80) with GasPaks (BBL). S. sanguis was incubated at 37° C. as static cultures in 5% CO2.
Bacteria were harvested in the mid to late exponential growth phase by centrifugation (10,000×g for 10 min at 4° C.). The cells were washed twice in coaggregation buffer (30 mM 3-[N-morpholino]propanesulfonic acid (MOPS), pH 7.0) and adjusted to an optical density of 0.6-0.8 at 540 nm (1-cm path). […]
Coaggregation was assessed by turbidity changes. Following mixing of the cells for 10 s on a Vortex mixer, absorbance readings were made every 30 min. The percentage of coaggregation was calculated from the following formula: Percent coaggregation=[OD540(A)+OD540(B)−OD540(A+B)]/(OD540(A)+OD540(B)), where A is the control containing cells of one strain, B is the control containing cells of the other strain, and A+B is the reaction mixture containing both cells. […]

[7] = system: P. aeruginosa culture supernatants; assay: Proteolytic activity of P. aeruginosa culture supernatants on azocoll; assay type: biochemical; settings: culture supernatants treated with 50 units/ml asparaginase
S. sobrinus 6715 = assay: Disc-diffusion growth assay, S. sobrinus; settings: 500 μg/ml and 1.0 mg/ml, 18 h
Experimental: Standard disc-diffusion assays were performed with 500 μg/ml and 1.0 mg/ml of polyphenol oxidase. Duplicate series of ten-fold dilutions (to 10^−8) of late exponential phase cultures of S. sobrinus were made in PBS. Eighty μl of each concentration of polyphenol oxidase was pipetted onto 13 mm sterile filter paper discs. The discs were applied to the center of agar plates previously inoculated with lawns of S. sobrinus. Plates were incubated for 18 h and examined visually for any effect of polyphenol oxidase on growth of the bacteria.
Duplicate series of ten-fold dilutions (to 10^−8) of late exponential phase cultures of S. sobrinus were made in PBS. Eighty , μl of each concentration of asparaginase was pipetted onto 13 mm sterile filter paper discs. The discs were applied to the center of agar plates previously inoculated with lawns of S. sobrinus. Plates were incubated for 18 h and examined visually for any effect of asparaginase on growth of the bacteria.

[8] = ampicillin 1 mg/ml to 0.015 mg/ml, polyphenol oxidase 1128 to 17.5 units/ml, asparaginase 20 to 0.31 units/ml, data not shown

B1: asparaginase: enzyme that catalyzes hydrolysis of the side chain amide group of asparagine to a carboxyl group; E. coli asparaginase (protein, UniProt P00805 23-348, looked up)
L-asparaginase 2: LPNITILATGGTIAGGGDSATKSNYTVGKVGVENLVNAVPQLKDIANVKGEQVVNIGSQDMNDNVWLTLAKKINTDCDKTDGFVITHGTDTMEETAYFLDLTVKCDKPVVMVGAMRPSTSMSADGPFNLYNAVVTAADKASANRGVLVVMNDTVLDGRDVTKTNTTDVATFKSVNYGPLGYIHNGKIDYQRTPARKHTSDTPFDVSKLNELPKVGIVYNYANASDLPAKALVDAGYDGIVSAGVGNGNLYKSVFDTLATAAKTGTAVVRSSRVPTGATTQDAEVDDAKYGFVASGTLNPQKARVLLQLALTQTKDPQQIQQIFNQY
- adhesion of S. pneumoniae to buccal cells (S. pneumoniae): able to reduce adhesion
- Percent Inhibition (S. pyogenes [1]; Strain M4, asparaginase 100 U/ml): 62%
- # S. pyogenes buccal cell, Asparaginase (100 U/ml) (S. pyogenes [1]; Strain M4, asparaginase 100 U/ml, untreated 183): 69
- Percent Inhibition (S. pyogenes [1]; Strain M12 AC, asparaginase 100 U/ml): 53%
- # S. pyogenes buccal cell, Asparaginase (100 U/ml) (S. pyogenes [1]; Strain M12 AC, asparaginase 100 U/ml, untreated 191): 89
- Percent Inhibition (S. pyogenes [1]; Strain M14, asparaginase 100 U/ml): 43%
- # S. pyogenes buccal cell, Asparaginase (100 U/ml) (S. pyogenes [1]; Strain M14, asparaginase 100 U/ml, untreated 183): 105
- Percent Inhibition (S. pyogenes [1]; Strain M14, asparaginase, third line of the strain (line of polyphenol oxidase 300), own concentration not given): 47%
- # S. pyogenes buccal cell, Asparaginase (100 U/ml) (S. pyogenes [1]; Strain M14, asparaginase, third line of the strain (line of polyphenol oxidase 300), own concentration not given, untreated 183): 77
- Percent Inhibition (S. pyogenes [1]; Strain M15 Lowe, asparaginase 100 U/ml): 23%
- # S. pyogenes buccal cell, Asparaginase (100 U/ml) (S. pyogenes [1]; Strain M15 Lowe, asparaginase 100 U/ml, untreated 120): 93
- Percent Inhibition (S. pyogenes [1]; Strain M24, asparaginase 100 U/ml): 61%
- # S. pyogenes buccal cell, Asparaginase (100 U/ml) (S. pyogenes [1]; Strain M24, asparaginase 100 U/ml, untreated 142): 55
- Percent Inhibition (S. pyogenes [1]; Strain M24 VAN, asparaginase 100 U/ml): 48%
- # S. pyogenes buccal cell, Asparaginase (100 U/ml) (S. pyogenes [1]; Strain M24 VAN, asparaginase 100 U/ml, untreated 131): 68
- Percent Inhibition (S. pyogenes [1]; Strain M+, asparaginase 100 U/ml): 64%
- # S. pyogenes buccal cell, Asparaginase (100 U/ml) (S. pyogenes [1]; Strain M+, asparaginase 100 U/ml, untreated 148): 53
- inhibition of growth of Bacillus cereus (Bacillus cereus): did not significantly inhibit growth
- binding of bacteria to urinary epithelial cells [2]: reduced binding
- Hemagglutination Titers, Dilution of Virus + RBCs (fold) (Influenza A strain H1N1): 64 fold
- inhibition of growth of Klebsiella pneumoniae (Klebsiella pneumoniae): did not significantly inhibit growth
- Candida/buccal cell (Candida albicans; cells, 20 U/ml, control 9.0 ± 3.5): 7.0 ± 2
- Candida/buccal cell (Candida albicans; cells, 60 U/ml, control 9.0 ± 3.5): 4.5 ± 1.5
- Candida/buccal cell (Candida albicans; hyphae, 20 U/ml, control 5.1 ± 3.1): 3.1 ± 2.0
- Candida/buccal cell (Candida albicans; hyphae, 60 U/ml, control 5.1 ± 3.1): 1.3 ± 1.2
- hydrolysis of the collagen substrate (azocoll) [3]: reduction of the hydrolysis
- binding of bacteria to buccal cells (S. pyogenes [4]; asparaginase 300 μg/OD, three hours): reduced binding
- reduction in adhesion compared with polyphenol oxidase (S. pyogenes [4]; equivalent amount): greater reduction in adhesion than an equivalent amount of polyphenol oxidase
- inhibition of growth of two strains of E. coli [5]: did not significantly inhibit growth
- inhibition of growth of P-fimbriated E. coli [5, 8]: Neither polyphenol oxidase (1128 units/ml to 17.5 units/ml) or asparaginase (20 units/ml to 0.31 units/ml) concentrations tested were able to inhibit the growth
- inhibition of growth of type 1-fimbriated E. coli [5, 8]: Neither polyphenol oxidase (1128 units/ml to 17.5 units/ml) or asparaginase (20 units/ml to 0.31 units/ml) concentrations tested were able to inhibit the growth
- Inhibition % of coaggregation [6]: 25%
- proteolytic activity on azocoll [7]: markedly reduced proteolytic activity
- inhibition of growth of S. sobrinus (S. sobrinus 6715): did not significantly inhibit growth
